From publication PMC10491024 (Cell reports, 2023)

T1: FP8v1-rTTHC (HIV-1, fusion peptide 512-519 (BG505 …))
T1 construct: also called fusion peptide
T1 chain: AVGIGAVF

T2: FP7v1-rTTHC (HIV-1, fusion peptide 512-518)
T2 construct: also called shorter peptides
T2 chain: AVGIGAV

T3: FP6v1-rTTHC (HIV-1, fusion peptide 512-517)
T3 construct: also called shorter peptides
T3 chain: AVGIGA

B1: N751-2C06.01 IgG (antibody, V domains shown)
VH: EVQLVESGGGLVQPGGSLRLSCSASGFTFSSYAMHWVRQAPGKGLEYVSAISGNGDSTYYADSVRGRFTISRDNSKNTLYLQMSSLRAEDTAVYYCVKQAAYCTRTSCYYFDYWGQGTLVTVSS
VL: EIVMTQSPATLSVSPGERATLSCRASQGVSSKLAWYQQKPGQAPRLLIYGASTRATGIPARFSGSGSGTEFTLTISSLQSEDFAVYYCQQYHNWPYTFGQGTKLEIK
B2: N751-2C09.01 IgG (antibody, V domains shown)
VH: EVQLVESGEGLVQPGGSLRLSCAASGFTFSSHAMHWVRQAPGKGLEYVSAISSEGGSTYYADSVRGRFIISRDNSKNTLYLQMGSLRAEDMAVYYCARVTGDYNWYFDLWGRGTLVTVSS
VL: EIVMTQSPATLSVSPGERATLSCRASQGVSSNLAWYQQKPGQAPRLLIHGASTRATGSPARFSGSGSGTEFTLTISSLQSEDFAVYSCQQYHNWPWTFGQGTKVEIK

Assays:
Details in all cases: both partners purified
FP8v1-rTTHC = target: T1, FP8v1-rTTHC; assay: ELISA
FP7v1-rTTHC = target: T2, FP7v1-rTTHC; assay: ELISA; plates coated with 2 μg/mL fusion peptide-rTTHC; 2C06 or 2C09 antibody serially diluted from 2 μg/mL, 1 h 37°C; anti-human IgG-HRP
FP6v1-rTTHC = target: T3, FP6v1-rTTHC; assay: as above

Binder	binding result (FP8v1-rTTHC)	binding result (FP7v1-rTTHC)	binding result (FP6v1-rTTHC)
B1	binds		
B2	binds	binds	binds
